Experimental data published in PMC7788595.

Target: sfGFP^204SCO (Aequorea victoria) [GFP: P42212]
Assay: FRET or BRET; steady state emission of the covalently SPAAC-linked GFVen^204 dimer, excitation at 450 nm; relative efficiency from donor and acceptor intensities (Equation 3) after deconvolution

FRET efficiency allowing for variation in quantum yield: 85 to 91%
relative FRET efficiency: 87%
Substance: Venus^204azF (from UniProt P42212 2-238) (natural protein)
